3 substances from paper PMC11077940 can be followed below.

The target of assay [1] is ATP hydrolysis-deficient DctD, DctD_(H216R), prepared as a dephosphorylated form (d-DctD_(H216R)) (Vibrio vulnificus). Nature of the assay: SEC; d-DctD_(H216R) (alkaline phosphatase-treated) and d-IIA^Glc in 50 mM Tris-HCl pH 8.0, 20 mM KCl, 50 mM MgCl2, 100 mM NaCl applied to Superdex 200 Increase 10/300 GL; fractionated multimers used for the ATPase assay.
Assay [2] has the same target. Described as above. This is another data set of the same source.
For assay [3], the target named is phosphorylation-deficient DctD (DctD_(D57Q)) of Vibrio vulnificus (Vibrio vulnificus). In words: SEC; GPC of mixtures of d-IIA^Glc and DctD_(D57Q) (20 µM each; also 5 µM + 20 µM and 20 µM + 5 µM); Superdex 200 Increase 10/300 GL, running buffer 50 mM Tris-HCl pH 8.0, 20 mM KCl, 50 mM MgCl2, 300 mM NaCl; fractions analysed by SDS-PAGE with densitometry against known amounts of each protein. On the technique in general: SEC sorts molecules by how far they enter the pores of the column.

For assay [4] the target is unchanged. Nature of the assay: SEC; GPC of recombinant DctD_(D57Q) alone; Superdex 200 Increase 10/300 GL, running buffer 50 mM Tris-HCl pH 8.0, 20 mM KCl, 50 mM MgCl2, 300 mM NaCl, 0.4 mL/min; size from a regression of standard proteins.

Read-outs that look alike come from different tables or passages of the source.

By stoichiometry N is commonly meant the number of molecules, sites or subunits per partner or assembly.

Consider “ATP hydrolysis-deficient DctD, DctD_(H216R), prepared as a dephosphorylated form (d-DctD_(H216R)) (natural protein)”, for which the stoichiometry N was 2 in assay [1] and 12 in assay [2]. On to “dephosphorylated form of the glucose-specific enzyme IIA (d-IIA^Glc) (natural protein)”, for which the stoichiometry N in assay [3] is 1 molar ratio. With “phosphorylation-deficient DctD (DctD_(D57Q)) of Vibrio vulnificus (natural protein)”, the stoichiometry N in assay [4] was determined as 2.
